# Assay results reported in article PMC5727935, “The distinctive cell division interactome of Neisseria gonorrhoeae” (BMC Microbiology, 2017).
# T1: FtsANg (analyte of the SPR with FtsQNg and FtsNNg) (Neisseria gonorrhoeae CH811, UniProt Q5F6M2 1-414)
# T1 construct: FtsA of Neisseria gonorrhoeae CH811; GST in PBST as the negative-control analyte hints at GST-FtsANg (surmise); source: E. coli C41 (DE3), purified
# T1 sequence (looked up): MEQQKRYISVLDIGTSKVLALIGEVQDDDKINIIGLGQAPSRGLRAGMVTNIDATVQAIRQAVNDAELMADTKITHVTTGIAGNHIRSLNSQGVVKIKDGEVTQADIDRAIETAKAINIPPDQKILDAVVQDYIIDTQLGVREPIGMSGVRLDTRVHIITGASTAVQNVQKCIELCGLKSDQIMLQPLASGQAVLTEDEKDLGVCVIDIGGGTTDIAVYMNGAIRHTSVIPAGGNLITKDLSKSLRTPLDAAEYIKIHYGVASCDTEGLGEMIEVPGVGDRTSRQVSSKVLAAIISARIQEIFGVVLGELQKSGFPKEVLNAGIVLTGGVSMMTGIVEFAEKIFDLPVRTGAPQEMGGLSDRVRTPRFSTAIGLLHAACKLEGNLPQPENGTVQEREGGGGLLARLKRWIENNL
# T2: N. gonorrhoeae FtsQ, bacterial two-hybrid fusion (Neisseria gonorrhoeae CH811, UniProt Q5F6M1 1-242)
# T2 construct: FtsQ of Neisseria gonorrhoeae CH811, amplified from genomic DNA with primers P5/P6 (start codon to stop codon); Cloned in both vectors (pcIp22 and pcI434); each fusion carries one of the two repressor ends; also called FtsQNg; pcIp22-Q; source: bacterial two-hybrid fusion, expressed in E. coli R721
# T2 sequence (looked up): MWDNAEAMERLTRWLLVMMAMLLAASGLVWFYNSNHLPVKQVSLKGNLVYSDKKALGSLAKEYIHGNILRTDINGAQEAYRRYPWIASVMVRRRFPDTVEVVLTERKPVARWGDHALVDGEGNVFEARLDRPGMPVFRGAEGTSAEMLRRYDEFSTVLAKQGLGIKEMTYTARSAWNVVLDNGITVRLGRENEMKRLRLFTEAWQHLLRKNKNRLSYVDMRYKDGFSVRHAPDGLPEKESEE
# T3: N. gonorrhoeae FtsW, bacterial two-hybrid fusion (Neisseria gonorrhoeae CH811, UniProt B4RQC6 1-462)
# T3 construct: FtsW of Neisseria gonorrhoeae CH811, amplified from genomic DNA with primers P9/P10 (start codon to stop codon); Cloned in both vectors (pcIp22 and pcI434); each fusion carries one of the two repressor ends; also called FtsWNg; pcIp22-W; source: bacterial two-hybrid fusion, expressed in E. coli R721
# T3 sequence (looked up): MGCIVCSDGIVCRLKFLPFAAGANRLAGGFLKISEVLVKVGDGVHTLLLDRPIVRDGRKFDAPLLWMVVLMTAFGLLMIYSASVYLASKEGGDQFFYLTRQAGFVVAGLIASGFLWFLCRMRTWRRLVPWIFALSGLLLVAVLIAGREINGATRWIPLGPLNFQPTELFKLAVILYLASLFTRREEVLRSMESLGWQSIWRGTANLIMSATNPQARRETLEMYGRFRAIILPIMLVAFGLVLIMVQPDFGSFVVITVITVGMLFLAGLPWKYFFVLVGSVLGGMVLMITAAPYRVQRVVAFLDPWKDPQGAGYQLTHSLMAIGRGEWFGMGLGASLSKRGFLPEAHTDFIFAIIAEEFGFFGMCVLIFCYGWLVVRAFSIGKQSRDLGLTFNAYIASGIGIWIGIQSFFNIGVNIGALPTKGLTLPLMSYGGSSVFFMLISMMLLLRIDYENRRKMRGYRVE
# Assays:
# [1] = biological target: N. gonorrhoeae FtsW, bacterial two-hybrid fusion (Neisseria gonorrhoeae CH811) (UniProt B4RQC6); assay: two-hybrid; bacterial two-hybrid (Di Lallo): fusions to P22 and 434 repressor ends in E. coli R721, 34 °C; residual β-galactosidase activity against R721 without plasmids (2504 ± 34 Miller units); less than 50% counts as a positive interaction
# [2] = biological target: N. gonorrhoeae FtsK, bacterial two-hybrid fusion (Neisseria gonorrhoeae CH811); assay: as above
# [3] = biological target: T1, FtsANg (analyte of the SPR with FtsQNg …); assay: SPR; Bio-Rad XPR36, ProteOn HTE chip activated with NiSO4; His-FtsQNg or His-FtsNNg immobilised at 200 nM; two-fold dilutions of FtsANg in PBST (0.1% BSA, 0.05% Tween-20, pH 7.9), 30 μl/min, 120 s, then 300 s buffer; Langmuir 1:1 kinetic fit; details: both partners purified
# [4] = biological target: N. gonorrhoeae FtsN, bacterial two-hybrid fusion (Neisseria gonorrhoeae CH811); assay: two-hybrid; bacterial two-hybrid (Di Lallo): fusions to P22 and 434 repressor ends in E. coli R721, 34 °C; residual β-galactosidase activity against R721 without plasmids (2504 ± 34 Miller units); less than 50% counts as a positive interaction
# [5] = biological target: N. gonorrhoeae FtsZ, bacterial two-hybrid fusion (Neisseria gonorrhoeae) (UniProt P72079); assay: as above
# [6] = biological target: T2, N. gonorrhoeae FtsQ, bacterial …; assay: as above; details: partners not purified
# [7] = biological target: T3, N. gonorrhoeae FtsW, bacterial …; assay: as above; details: partners not purified
# [8] = biological target: His-FtsNNg (ligand of the SPR) (Neisseria gonorrhoeae); assay: SPR; Bio-Rad XPR36, ProteOn HTE chip activated with NiSO4; His-FtsQNg or His-FtsNNg immobilised at 200 nM; two-fold dilutions of FtsANg in PBST (0.1% BSA, 0.05% Tween-20, pH 7.9), 30 μl/min, 120 s, then 300 s buffer; Langmuir 1:1 kinetic fit
# [9] = biological target: the molecule itself; assay: 90° light scattering + negative-stain electron microscopy; FtsZNg about 6 μM in MES buffer (50 mM MES-NaOH, 50 mM KCl, 10 mM MgCl2, pH 7.5), 2 mM GTP, 30 °C; polymerisation
# [10] = biological target: His-FtsANg (Neisseria gonorrhoeae CH811) (UniProt Q5F6M2); assay: SPR; FtsANg immobilised on the HTE chip; polymerized FtsZNg (with GTP) at 6 and 12 μM injected for 120 s, 300 s dissociation; MES buffer with 0.1% BSA, 0.05% Tween-20, 1 mM ATP, pH 7.5; Langmuir 1:1 kinetic fit
molecule,measurement,setting,value
"N. gonorrhoeae FtsI, bacterial two-hybrid fusion (natural protein)",residual β-galactosidase activity,[1],35%
"N. gonorrhoeae FtsN, bacterial two-hybrid fusion (natural protein)",residual β-galactosidase activity,[2],31%
"His-FtsQNg (natural protein, Neisseria gonorrhoeae CH811, UniProt Q5F6M1 1-242, looked up, FtsQ of Neisseria gonorrhoeae CH811, full-length ftsQ (primers P17/P18) cloned BglII/EcoRI into pET30a; also called pETQ) MWDNAEAMERLTRWLLVMMAMLLAASGLVWFYNSNHLPVKQVSLKGNLVYSDKKALGSLAKEYIHGNILRTDINGAQEAYRRYPWIASVMVRRRFPDTVEVVLTERKPVARWGDHALVDGEGNVFEARLDRPGMPVFRGAEGTSAEMLRRYDEFSTVLAKQGLGIKEMTYTARSAWNVVLDNGITVRLGRENEMKRLRLFTEAWQHLLRKNKNRLSYVDMRYKDGFSVRHAPDGLPEKESEE",Kd,[3],15.1 nM
same,koff,[3],0.00409 s⁻¹
same,kon,[3],272000 M⁻¹ s⁻¹
"N. gonorrhoeae FtsA, bacterial two-hybrid fusion (natural protein, Neisseria gonorrhoeae CH811, UniProt Q5F6M2 1-414, looked up, FtsA of Neisseria gonorrhoeae CH811, amplified from genomic DNA with primers P1/P2 (start codon to stop codon); ends at Leu414 by the limits of the truncations; Cloned in both vectors (pcIp22 and pcI434); each fusion carries one of the two repressor ends; also called FtsANg; pcIp22-A; source: bacterial two-hybrid fusion, expressed in E. coli R721) MEQQKRYISVLDIGTSKVLALIGEVQDDDKINIIGLGQAPSRGLRAGMVTNIDATVQAIRQAVNDAELMADTKITHVTTGIAGNHIRSLNSQGVVKIKDGEVTQADIDRAIETAKAINIPPDQKILDAVVQDYIIDTQLGVREPIGMSGVRLDTRVHIITGASTAVQNVQKCIELCGLKSDQIMLQPLASGQAVLTEDEKDLGVCVIDIGGGTTDIAVYMNGAIRHTSVIPAGGNLITKDLSKSLRTPLDAAEYIKIHYGVASCDTEGLGEMIEVPGVGDRTSRQVSSKVLAAIISARIQEIFGVVLGELQKSGFPKEVLNAGIVLTGGVSMMTGIVEFAEKIFDLPVRTGAPQEMGGLSDRVRTPRFSTAIGLLHAACKLEGNLPQPENGTVQEREGGGGLLARLKRWIENNL",residual β-galactosidase activity,[2],30%
same,residual β-galactosidase activity,[4],24%
same,residual β-galactosidase activity,[5],40%
same,residual β-galactosidase activity,[6],48%
same,residual β-galactosidase activity,[7],45%
FtsANg (analyte of the SPR with FtsQNg and FtsNNg) (natural protein) MEQQKRYISVLDIGTSKVLALIGEVQDDDKINIIGLGQAPSRGLRAGMVTNIDATVQAIRQAVNDAELMADTKITHVTTGIAGNHIRSLNSQGVVKIKDGEVTQADIDRAIETAKAINIPPDQKILDAVVQDYIIDTQLGVREPIGMSGVRLDTRVHIITGASTAVQNVQKCIELCGLKSDQIMLQPLASGQAVLTEDEKDLGVCVIDIGGGTTDIAVYMNGAIRHTSVIPAGGNLITKDLSKSLRTPLDAAEYIKIHYGVASCDTEGLGEMIEVPGVGDRTSRQVSSKVLAAIISARIQEIFGVVLGELQKSGFPKEVLNAGIVLTGGVSMMTGIVEFAEKIFDLPVRTGAPQEMGGLSDRVRTPRFSTAIGLLHAACKLEGNLPQPENGTVQEREGGGGLLARLKRWIENNL,Kd,[8],53.3 nM
same,koff,[8],0.00616 s⁻¹
same,kon,[8],115000 M⁻¹ s⁻¹
"FtsZNg, His tag cleaved with thrombin (natural protein, Neisseria gonorrhoeae CH811, UniProt P72079 1-392, looked up, FtsZ of Neisseria gonorrhoeae CH811, full-length ftsZ (primers P19/P20) cloned BglII/EcoRI into pET30a; also called polymerized FtsZNg; not shown: His6, N-terminal, cleaved) MEFVYDVAESAVSPAVIKVIGLGGGGCNAINNMVANNVRSVEFISANTDAQSLAKNHAAKRIQLGTNLTRGLGAGANPDIGRAAAQEDREAIEEAIRGANMLFITTGMGGGTGTGSAPVVAEIAKSLGILTVAVVTRPFSYEGKRVHVAQAGLEQLKEHVDSLIIIPNDKLMTALGEDVTMREAFRAADNVLRDAVAGISEVVTCPSEIINLDFADVKTVMSNRGIAMMGSGYAQGIDRARMATDQAISSPLLDDVTLDGARGVLVNITTAPGCLKMSELSEVMKIVNQSAHPDLECKFGAAEDETMSEDAIRITIIATGLKEKGAVDPTPEREVEAVAPSKQEQSHIVEGMIRTNRGIRTMNLTAADFDNQSVLDDFEIPAILRRQHNSDK",binding result,[9],binds
same,Kd,[10],14900 nM
same,koff,[10],0.00531 s⁻¹
same,kon,[10],356 M⁻¹ s⁻¹
"N. gonorrhoeae FtsZ, bacterial two-hybrid fusion (natural protein, Neisseria gonorrhoeae, UniProt P72079 1-392, looked up, FtsZ of Neisseria gonorrhoeae; Cloned in both vectors (pcIp22 and pcI434); each fusion carries one of the two repressor ends; also called FtsZNg; pcIp22-Z; source: bacterial two-hybrid fusion, expressed in E. coli R721) MEFVYDVAESAVSPAVIKVIGLGGGGCNAINNMVANNVRSVEFISANTDAQSLAKNHAAKRIQLGTNLTRGLGAGANPDIGRAAAQEDREAIEEAIRGANMLFITTGMGGGTGTGSAPVVAEIAKSLGILTVAVVTRPFSYEGKRVHVAQAGLEQLKEHVDSLIIIPNDKLMTALGEDVTMREAFRAADNVLRDAVAGISEVVTCPSEIINLDFADVKTVMSNRGIAMMGSGYAQGIDRARMATDQAISSPLLDDVTLDGARGVLVNITTAPGCLKMSELSEVMKIVNQSAHPDLECKFGAAEDETMSEDAIRITIIATGLKEKGAVDPTPEREVEAVAPSKQEQSHIVEGMIRTNRGIRTMNLTAADFDNQSVLDDFEIPAILRRQHNSDK",residual β-galactosidase activity,[2],41%
same,residual β-galactosidase activity,[7],39%
